Numbering of substitutions follows the chain as printed.
Test system: H1 or H9 human embryonic stem cells
Assay: Activin A bioassay: differentiation of human embryonic stem cells to definitive endoderm, cell number and SOX17 intensity by high content analysis (96-well, four days);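 on Cell Number average: Raw total cell count per well from high content imaging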;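 on Sox 17 Intensity average: total fluorescence of the cell multiplied by cell area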
Type: cell-based
Settings: for Sox 17 Intensity % of control: control = R&D Sys Activin A 100 ng/ml on same plate
Text: Activin A is an important mediator of differentiation in a broad range of cell types. […] A bioassay that measures this differentiation in human embryonic stem cells was adapted in miniaturized format to 96-well plates for screening purposes. Validation was completed using treatment with commercial sources of activin A and Wnt3a recombinant proteins and measuring protein expression of the transcription factor SOX17, which is considered a representative marker of definitive endoderm.
Live Cell Assay: Briefly, clusters of H1 or H9 human embryonic stem cells were grown on growth factor-reduced MATRIGEL™ (Invitrogen; Cat #356231)-coated tissue culture plastic. Cells were passaged using collagenase (Invitrogen; Cat # Cat #17104-019) treatment and gentle scraping, washed to remove residual enzyme, and plated in a ratio of 1:1 (surface area) on growth factor-reduced MATRIGEL™-coated 96-well plates (black, 96-well; Packard ViewPlates; Cat #6005182). Cells were allowed to attach as clusters and then recover log phase growth over a 1 to 3 day period, feeding daily with MEF conditioned medium supplemented with 8 ng/ml bFGF (R&D Systems; Cat #233-FB).
The assay was initiated by washing the wells of each plate twice in PBS and followed by adding an aliquot (100 μl) of test sample in DMEM:F12 basal medium (Invitrogen; Cat #11330-032) to each well. Test conditions were performed in triplicate, feeding […] by aspirating and replacing the medium from each well with test samples over a total four day assay period. On the first and second day of assay, test samples added to the assay wells were diluted in DMEM:F12 with 0.5% FCS (HyClone; Cat #SH30070.03) and 20 ng/ml Wnt3a (R&D Systems; Cat #1324-WN). On the third and fourth day of assay, test samples added to the assay wells were diluted in DMEM:F12 with 2% FCS, without any Wnt3a. Positive control samples consisted of recombinant human activin A (Peprotech; Cat #120-14) added at a concentration of 100 ng/ml throughout assay plus Wnt3a (20 ng/ml) on days 1 and 2. Negative control samples omitted treatment with both activin A and Wnt3a.
High Content Analysis: At the conclusion of four days of culture, assay plates were washed twice with PBS, fixed with 4% paraformaldehyde at room temperature for 20 minutes, then washed three times with PBS and permeabilized with 0.5% Triton X-100 for 20 minutes at room temperature. Cells were washed again three times with PBS and blocked with 4% chicken serum (Invitrogen; Cat #16110082) in PBS for 30 minutes at room temperature. Primary antibody (goat anti-human SOX17; R&D Systems; cat #AF1924) was diluted 1:100 in 4% chicken serum and added to each well for one hour at room temperature. Alexa Fluor 488 conjugated secondary antibody (chicken anti-goat IgG; Molecular Probes; Cat #) was diluted 1:200 in PBS and added to each sample well after washing three times with PBS. To counterstain nuclei, 4 μg/ml Hoechst 33342 (Invitrogen; Cat #H3570) was added for ten minutes at room temperature. Plates were washed once with PBS and left in 100 μl/well PBS for imaging.
Imaging was performed using an IN Cell Analyzer 1000 (GE Healthcare) utilizing the 51008bs dichroic for cells stained with Hoechst 33342 and Alexa Fluor 488. Exposure times were optimized from positive control wells and from untreated negative control wells stained with secondary antibody alone. Images from 15 fields per well were acquired to compensate for any cell loss during the bioassay and subsequent staining procedures. Measurements for total cell number and total SOX17 intensity were obtained from each well using IN Cell Developer Toolbox 1.7 (GE Healthcare) software. Segmentation for the nuclei was determined based on grayscale levels (baseline range 100-300) and nuclear size. Averages and standard deviations were calculated for each replicate data set. […]

[1] = supernatant concentration 10x, assay dilution 1:20, assay plates #007, #009, #010
[2] = supernatant concentration 10x, assay dilution 1:20
[3] = supernatant concentration 50x, assay dilution 1:20, assay plates #008, #009
[4] = supernatant concentration 50x, assay dilution 1:20
[5] = supernatant concentration 1x, assay dilution 1:20
[6] = supernatant concentration 10x, assay dilution 1:40

B1: ACTN24: activin A variant peptide, SEQ ID 25 (protein)
chain: GLECDGKVNLCCKKQDFVSFKDIGWNDWIIAPSGYHANRCSGRCPSHIAGTSGSSLSFHSTVINHYRMRGHSPFSDMGSCCVPTKLRPMSMLYYDDGQNIIKKDIQNMIVEECGCS
Cell Number average [1]: 3261 | Sox 17 Intensity average [1]: 2.91E+06 | Sox 17 Intensity % of control [2]: 13.2% | Cell Number average [3]: 4785 | Sox 17 Intensity average [3]: 1.04E+07 | Sox 17 Intensity % of control [4]: 18.8%

B2: ACTN26: activin A variant peptide, SEQ ID 27 (protein)
chain: B1 chain with D16H, S41D, R43K, S75A, D76N, S79A, V82I
Cell Number average [1]: 4250 | Sox 17 Intensity average [1]: 5.92E+05 | Sox 17 Intensity % of control [2]: 2.7% | Cell Number average [3]: 5043 | Sox 17 Intensity average [3]: 4.78E+06 | Sox 17 Intensity % of control [4]: 8.6%

B3: ACTN25: activin A variant peptide, SEQ ID 26 (protein)
chain: B1 chain with D16N, R39E, R43L, D76Q, V82I
Cell Number average [1]: 5043 | Sox 17 Intensity average [1]: 3.55E+06 | Sox 17 Intensity % of control [2]: 16.1% | Cell Number average [3]: 4620 | Sox 17 Intensity average [3]: 1.52E+07 | Sox 17 Intensity % of control [4]: 27.6%

B4: ACTN30: activin A variant peptide, SEQ ID 31 (protein)
chain: B1 chain with L10Y, D16N, R39K, R43L, D76K, S79A
Cell Number average [1]: 7357 | Sox 17 Intensity average [1]: 6.73E+05 | Sox 17 Intensity % of control [2]: 3.0% | Cell Number average [3]: 5013 | Sox 17 Intensity average [3]: 2.87E+06 | Sox 17 Intensity % of control [4]: 5.2%

B5: ACTN33: activin A variant peptide, SEQ ID 34 (protein)
chain: B1 chain with D16N, R39E, S41M, R43K, S79A, V82I
Cell Number average [1]: 3588 | Sox 17 Intensity average [1]: 2.15E+06 | Sox 17 Intensity % of control [2]: 9.7% | Cell Number average [3]: 3383 | Sox 17 Intensity average [3]: 6.50E+06 | Sox 17 Intensity % of control [4]: 11.8%

B6: ACTN31: activin A variant peptide, SEQ ID 32 (protein)
chain: B1 chain with L10T, D16L, R39H, R43K, V82I
Cell Number average [1]: 10450 | Sox 17 Intensity average [1]: 5.44E+07 | Sox 17 Intensity % of control [2]: 246.3% | Cell Number average [3]: 11148 | Sox 17 Intensity average [3]: 1.49E+08 | Sox 17 Intensity % of control [4]: 269.7%

B7: ACTN29: activin A variant peptide, SEQ ID 30 (protein)
chain: B1 chain with D16L, R39H, R43K, V82I
Cell Number average [1]: 8943 | Sox 17 Intensity average [1]: 5.13E+07 | Sox 17 Intensity % of control [2]: 232.0% | Cell Number average [3]: 8835 | Sox 17 Intensity average [3]: 1.03E+08 | Sox 17 Intensity % of control [4]: 186.2%

B8: ACTN75: activin A variant peptide, SEQ ID 76 (protein)
chain: GLECDGKVNICCKKQSFGQAKDIGWNDWIIAPSGYHGGGCSGECPSHIAGTSGSSLSFHSTVINHYRMRGHSPWANLKSCCSPTKLRPMSMLYYDDGQNIIKKDIQRMKVEECGCT
Cell Number average [5]: 2873 | Sox 17 Intensity average [5]: 1.81E+05 | Sox 17 Intensity % of control [5]: 0.8% | Cell Number average [2]: 3867 | Sox 17 Intensity average [2]: 3.91E+05 | Sox 17 Intensity % of control [2]: 1.7% | Cell Number average [6]: 3641 | Sox 17 Intensity average [6]: 1.24E+06 | Sox 17 Intensity % of control [6]: 5.4%

B9: ACTN76: activin A variant peptide, SEQ ID 77 (protein)
chain: B8 chain with S16L, A20T, W74N, R107G
Cell Number average [5]: 3613 | Sox 17 Intensity average [5]: 9.19E+05 | Sox 17 Intensity % of control [5]: 4.0% | Cell Number average [2]: 4732 | Sox 17 Intensity average [2]: 1.43E+06 | Sox 17 Intensity % of control [2]: 6.2% | Cell Number average [6]: 7608 | Sox 17 Intensity average [6]: 7.54E+05 | Sox 17 Intensity % of control [6]: 3.3%

B10: ACTN90: activin A variant peptide, SEQ ID 91 (protein)
chain: B8 chain with A20T, G39S, W74F, R107N
Cell Number average [5]: 1727 | Sox 17 Intensity average [5]: 1.34E+06 | Sox 17 Intensity % of control [5]: 5.9% | Cell Number average [2]: 2819 | Sox 17 Intensity average [2]: 4.13E+05 | Sox 17 Intensity % of control [2]: 1.8% | Cell Number average [6]: 3042 | Sox 17 Intensity average [6]: 1.33E+06 | Sox 17 Intensity % of control [6]: 5.8%

B11: ACTN87: activin A variant peptide, SEQ ID 88 (protein)
chain: B8 chain with G39S, W74F, R107N, K109V
Cell Number average [5]: 1548 | Sox 17 Intensity average [5]: 5.85E+05 | Sox 17 Intensity % of control [5]: 2.6% | Cell Number average [2]: 3258 | Sox 17 Intensity average [2]: 7.89E+05 | Sox 17 Intensity % of control [2]: 3.4% | Cell Number average [6]: 3613 | Sox 17 Intensity average [6]: 3.99E+05 | Sox 17 Intensity % of control [6]: 1.7%

B12: ACTN79: activin A variant peptide, SEQ ID 80 (protein)
chain: B8 chain with S41T, K109V
Cell Number average [5]: 2958 | Sox 17 Intensity average [5]: 4.07E+05 | Sox 17 Intensity % of control [5]: 1.8% | Cell Number average [2]: 7704 | Sox 17 Intensity average [2]: 3.83E+05 | Sox 17 Intensity % of control [2]: 1.7% | Cell Number average [6]: 2486 | Sox 17 Intensity average [6]: 6.19E+04 | Sox 17 Intensity % of control [6]: 0.3%

B13: ACTN89: activin A variant peptide, SEQ ID 90 (protein)
chain: B8 chain with S16L, A20T, W74N, R107N
Cell Number average [5]: 5495 | Sox 17 Intensity average [5]: 3.63E+05 | Sox 17 Intensity % of control [5]: 1.6% | Cell Number average [2]: 5558 | Sox 17 Intensity average [2]: 5.77E+05 | Sox 17 Intensity % of control [2]: 2.5% | Cell Number average [6]: 4474 | Sox 17 Intensity average [6]: 7.23E+05 | Sox 17 Intensity % of control [6]: 3.2%

B14: ACTN84: activin A variant peptide, SEQ ID 85 (protein)
chain: B8 chain with W74F, R107N, K109V
Cell Number average [5]: 1976 | Sox 17 Intensity average [5]: 3.37E+05 | Sox 17 Intensity % of control [5]: 1.5% | Cell Number average [2]: 2272 | Sox 17 Intensity average [2]: 2.65E+05 | Sox 17 Intensity % of control [2]: 1.2% | Cell Number average [6]: 5228 | Sox 17 Intensity average [6]: 8.40E+05 | Sox 17 Intensity % of control [6]: 3.7%

From US20110091971A1, “Differentiation of Pluripotent Stem Cells” (priority 2008, published 2011)
